Laboratory results published in patent US20140370037A1 (published 2014).

Assays:
human DLL3 antigen [1] = molecular target: T1, human DLL3 antigen (human, UniProt Q9NYJ7 27-492); assay: ForteBio
T1 chain: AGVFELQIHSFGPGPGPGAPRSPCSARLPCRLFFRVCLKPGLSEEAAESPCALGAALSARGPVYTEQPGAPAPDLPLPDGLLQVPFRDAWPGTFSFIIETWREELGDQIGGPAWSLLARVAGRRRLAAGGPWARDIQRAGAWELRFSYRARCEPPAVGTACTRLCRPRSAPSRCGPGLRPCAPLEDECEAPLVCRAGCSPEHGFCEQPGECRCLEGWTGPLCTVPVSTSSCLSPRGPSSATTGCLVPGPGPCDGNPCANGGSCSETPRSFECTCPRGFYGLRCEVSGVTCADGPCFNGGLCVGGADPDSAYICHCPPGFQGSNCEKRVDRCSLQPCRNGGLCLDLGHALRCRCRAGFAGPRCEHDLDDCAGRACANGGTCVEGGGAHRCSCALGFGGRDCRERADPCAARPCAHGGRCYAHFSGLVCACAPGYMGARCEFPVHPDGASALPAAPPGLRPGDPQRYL

human DLL3 antigen [2] = molecular target: T1, human DLL3 antigen; assay: ForteBio
human DLL3 antigen [3] = molecular target: T1, human DLL3 antigen; assay: SPR
human DLL3 antigen [4] = molecular target: T1, human DLL3 antigen; assay: Biacore SPR

Binder	Kd (human DLL3 antigen [3])	Kd (human DLL3 antigen [4])	also measured
SC16.4 (antibody, V domains shown) VH: QIQLVQSGPELKKPGETVKISCKASGYTFTDYSMHWVKQAPGKGLKWMGWINTETGEPGYADDFKGRFAFSLETSASTAYLQINNLKNEDTATYFCARYDGYAMDYWGQGTSVTVSS VL: DIQMTQTTSSLSASLGDRVTISCRASQDISNYLNWYQQKPDGTVKLLIYYTSRLHSGVPSRFSGSGSGTDYSLTISNLELEDIATYFCQQGDMLPWTFGGGTKLEIK			Kd (human DLL3 antigen [1]): 0.5 nM
SC16.39 (antibody, V domains shown) VH: EVKLEESGGGLVQFGGSMKLSCAASGFTFSDAWMDWVRQSPEKGLEWVAEIRNKANNHATYYPESVKGRFTISRDDSKSRVYLQMNNLRAEDTGIYYCTGYSSFAYWGQGTLVTVSA VL: DIQMTQTTSSLSASLGDRVTISCRASQDVINYLNWYQQKPDGTVKLLIYYTSRLHSGVPSRFSGSGSRTDYSLTISNLEPEDIATYYCQQYSERPYTFGGGTKLEIK			Kd (human DLL3 antigen [2]): 1 nM
SC16.25 (antibody, V domains shown) VH: QVTLKESGPGILQPSQTLSLTCSFSGFSLSTSGMGVGWIRQPSGEGLEWLTDIWWDDNKYYNPSLKSRLTISKDTSSNQVFLNITSVDTADTATYYCARRVNYYYDPYYAMDYWGQGTSVTVSS VL: QIVLTQSPAIMSASPGEKVTMTCSASSSVSYMHWYQQKSGTSPKRWIYDSSKLASGVPARFSGSGSGTSYSLTISSMEAEDAATYYCQQWSSNPLTFGAGTKLELK	< 0.2 nM	0.2 nM	
SC16.8 (antibody, V domains shown) VH: QAQLQQSGAELVRPGTSVKVSCKASGYAFTNYLIEWVKQRPGQGLEWIGVINPGTGGTNYNENFKGKATLTADKSSSTAYMQLSSLTSDDSAVYFCARSPYDYHEGAMDYWGQGTSVTVSS VL: EIQMTQSPSSMSASLGDRITITCQATQDIVKNLNWYQQKPGKPPSFLIYYAIELAEGVPSRFSGSGSGSDYSLTISNLESEDFADYYCLQFYEFPFTFGAGTKLELK			Kd (human DLL3 antigen [1]): 0.5 nM
hSC16.34 (antibody, V domains shown) VH: QVQLVQSGAEVKKPGASVKVSCKASGYTFTNYGMNWVRQAPGQRLEWMGWINTYTGDPTYADDFKGRVTITRDTSASTAYMELSSLRSEDTAVYYCARIGGNSPSDYWGQGTTVTVSS VL: DIQMTQSPSSLSASVGDRVTITCKASQSVSNDVAWYQQKPGKVPKLLIYYASNRYSGVPSRFSGSGSGTDFTLTISSLQPEDVATYFCQQDYSSPWTFGGGTKVEIK	0.9 nM		
hSC16.56 (antibody, V domains shown) VH: QVQLVQSGAEVKKPGASVKVSCKASGYTFTNYGMNWVRQAPGQGLEWMGWINTYTGEPTYADDFKGRVTMTTDTSTSTAYMELRSLRSDDTAVYYCARIGDSSPSDYWGQGTLVTVSS VL: EIVMTQSPATLSVSPGERATLSCKASQSVSNDVVWYQQKPGQAPRLLIYYASNRYTGIPARFSGSGSGTEFTLTISSLQSEDFAVYYCQQDYTSPWTFGQGTKLEIKR	0.5 nM		
SC16.13 (antibody, V domains shown) VH: QVTLKESGPGILQPSQTLSLTCSFSGFSLSTSGMGVGWIRQPSGKGLEWLAHIWWDDVKRYNPALKSRLTISKDTSSSQVFLKIASVDTADTATYYCARIVSFDNDVVSAMDYWGQGTSVTVSS VL: QIVLTQSPALVSASPGEKVTMTCSASSSVSYMYWYQQKPRSSPKPWIYLTSNLASGVPARFSGSGSGTSYSLTISSMEAEDAATYYCQQWRSNPFTFGSGTKLEIK	0.3 nM	2 nM	
SC16.65 (antibody, V domains shown) VH: QVTLKESGPGILQPSQTLSLTCSFSGFSLSTSGMGVGWIRQPSGKGLEWLALIWWDDVKRYNPALKSRLTISKDASSSQVFLKIASVDTADTATYYCARIASYDYDVVYAMDYWGQGTSVSVSS VL: QIVLTQSPALMSASPGEKVTMTCSVTSSVSYMYWYQQKPRSSPKPWIYLTSNLASGVPARFSGSGSGTSYSLTISSVEAEDAATYYCQQWRNNPFTFGSGTKVEIK		0.9 nM	
SC16.10 (antibody, V domains shown) VH: QVTLKESGPGILQSSQTLSLTCSFSGFSLSTSGMGVGWIRQPSGKGLEWLAHIWWDDVKRYNPVLKSRLTISKDTSSSQVFLKIASVDTADTATYYCARLVDDLYYFDYWGQGTTLTVSS VL: QIVLTQSPAIMSASLGERVTMTCTASSSVSSSYLHWYQQKPGSSPKLWIYSTSNLASGVPTRFSGSGSGTSYSLTISSMEAEDAATYYCHQYHRSPFTFGSGTKLEIK			Kd (human DLL3 antigen [1]): 4 nM
SC16.15 (antibody, V domains shown) VH: QVQLQQSGAELAKPGASVKMSCKASGYTFTRYWIHWIKQRPGQGLEWIGYINPTTVYTEFNQNFKDKATLTADKSSTTASMQLSSLTSEDSAVYYCARGGSNFFDYWGQGTTLTVSS VL: DIQMTQSPASLAASVGETVAITCRASENIYYNLAWYQQKQGKSPQLLIYTANSLEDGVPSRFSGSGSGTQYSLKINSMQPEDSATYFCKQAYDVPPTFGGGTKLEIK		0.5 nM	
hSC16.15 (antibody, V domains shown) VH: QVQLVQSGAEVKKPGASVKVSCKASGYTFTRYWIHWIRQAPGQGLEWMGYINPTTVYTEFNQNFKDRVTMTRDTSTSTVYMELSSLRSEDTAVYYCARGGSNFFDYWGQGTTVTVSS VL: AIQLTQSPSSLSASVGDRVTITCRASENIYYNLAWYQQKPGKAPKLLIYTANSLEDGVPSRFSGSGSGTDFTLTISSLQPEDFATYFCKQAYDVPPTFGGGTKLEIK	0.2 nM		
SC16.67 (antibody, V domains shown) VH: EVQLVETGGGLVQPKGSLKLSCAVSAFTFTTYAMNWVRQAPGKGLEWVARIRNKSNNYATYYADSVKDRFTISRDDSQSMLYLQMNNLKIEDTAMYYCVFYYDYVYWGQGTLVTVSA VL: QAVVTQESALTTSPGETVTLTCRSSTGAVTTSNYANWIQEKPDHLFTGLIGGTNNRAPGVPARFSGSLIGDKAALTITGAQTEDEAIYFCGLWYSNHLVFGGGTKLTVL			Kd (human DLL3 antigen [1]): 0.5 nM
hSC16.13 (antibody, V domains shown) VH: QITLKESGPTLVKPTQTLTLTCTFSGFSLSTSGMGVGWIRQPPGKALEWLAHIWWDDVKRYSPSLKSRLTITKDTSKNQVVLTMTNMDPVDTATYYCARIVSFDNDVVSAMDYWGQGTLVTVSS VL: DIQMTQSPSSLSASVGDRVTITCSASSSVSYMYWYQQKPGKAPKLLIYLTSNLASGVPSRFSGSGSGTDFTLTISSLQPEDFATYYCQQWRSNPFTFGQGTKLEIKR	0.5 nM		
SC16.34 (antibody, V domains shown) VH: QIQLVQSGPELKRPGETVKISCKASGYTFTNYGMNWVKQAPGKGLKWMGWINTYTGDPTYADDFKGRFAFSLETSASTAYLQINNLKNEDTATYFCARIGGNSPSDYWGQGTSLTVSS VL: SIVMTQTPKFLLVSAGDRVTITCKASQSVSNDVAWYQQKPGQSPKLLIYYASNRYSGVPDRFTGSGYGTDFTFTISTVQAEDLAVYFCQQDYSSPWTFGGGTKLEIK	0.6 nM	0.2 nM	
SC16.56 (antibody, V domains shown) VH: QIQLVQSGPELKKPGETVKISCKASGYTFTNYGMNWVKQAPGKGLKWMAWINTYTGEPTYADDFKGRFAFSLETSASTASLQIINLKNEDTATYFCARIGDSSPSDYWGQGTTLTVSS VL: SIVMTQTPKFLLVSAGDRVTITCKASQSVSNDVVWYQQKPGQSPKLLIYYASNRYTGVPDRFAGSGYGTDFSFTISTVQAEDLAVYFCQQDYTSPWTFGGGTKLEIR	0.5 nM	1 nM	
hSC16.25 (antibody, V domains shown) VL: EIVLTQSPDFQSVTPKEKVTITCSASSSVSYMHWYQQKPDQSPKLLIKDSSKLASGVPSRFSGSGSGTDFTLTINSLEAEDAATYYCQQWSSNPLTFGQGTKLEIK V domain: QITLKESGPTLVKPTQTLTLTCTFSGFSLSTSGMGVGWIRQPPGKALEWLTDIWWDDNKYYNPSLKSRLTITKDTSKNQVVLTMTNMDPVDTATYYCARRVNYYYDPYYAMDYWGQGTTLVTVS	< 0.2 nM		
